These results are taken from patent publication US9834772, “Aptamers bound human serum albumin and glycated human serum albumin” (National Science & Technology Development Agency).

What all share (settings): label: 5' biotin
Data set [1] deals with T1, Human serum albumin (HSA) (Homo sapiens, UniProt P02768 P02768:25-609). As to the kind of experiment: ELONA; indirect ELISA: + at 200, 2, 0.2 nM, - at 20 nM; PBST, room temperature. From the text: The binding assay of selected aptamers against HSA and aptamers against GHSA is deteimined by using Indirect Enzyme-Linked Immunosorbent Assay (Indirect ELISA) and Direct Enzyme-Linked Immunosorbent Assay (Direct ELISA), as described below. 3.1. Indirect Enzyme-Linked Immunosorbent Assay (Indirect ELISA) The principle of this experiment is based on two antibodies, which are antibodies against 5' biotinylated aptamer and antibodies against the first antibody. The second antibody is conjugated with horseradish peroxidase enzyme (HRP), which can changes TMB color from blue to be yellow. The yellow color intensity is direct indicator for the target protein concentration. Random selected aptamers in Table 5 and Table 6 were chosen for analysis using this method. Indirect ELISA Protocol Step 1: 0.8 μg of BSA or HSA or GHSA was added in 50 μl of 0.05 M carbonate buffer in 96 well plate (50 μL/well) and incubated at 4° C. for 1 night. In this process, all proteins will be coated on the 96 well plate.
T1 sequence (P02768 25-609, one chain of several): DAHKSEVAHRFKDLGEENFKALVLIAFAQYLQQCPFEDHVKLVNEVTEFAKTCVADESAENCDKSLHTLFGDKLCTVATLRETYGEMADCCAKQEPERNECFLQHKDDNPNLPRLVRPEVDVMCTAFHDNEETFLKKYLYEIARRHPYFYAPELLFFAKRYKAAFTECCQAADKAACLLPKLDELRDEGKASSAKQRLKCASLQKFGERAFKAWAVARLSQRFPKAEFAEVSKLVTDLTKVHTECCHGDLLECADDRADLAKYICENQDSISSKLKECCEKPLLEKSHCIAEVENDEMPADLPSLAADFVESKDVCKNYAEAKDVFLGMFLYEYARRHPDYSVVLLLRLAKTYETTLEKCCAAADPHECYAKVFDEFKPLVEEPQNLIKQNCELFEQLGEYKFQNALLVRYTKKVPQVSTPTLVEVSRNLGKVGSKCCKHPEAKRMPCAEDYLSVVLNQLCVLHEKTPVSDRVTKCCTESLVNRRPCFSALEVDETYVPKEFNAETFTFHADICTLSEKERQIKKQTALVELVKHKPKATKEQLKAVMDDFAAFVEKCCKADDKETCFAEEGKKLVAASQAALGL
Step 2: The reaction from step 1 was washed 5 times with Phosphate buffer (PBST) (0.05% Tween) using ELISA washing machine (Fluido 2) and tapped for 3-5 times.
Step 8: 50 μL of 0.6 M H_2SO_4 was added in the reaction and immediately measured the $OD_{450\ nm}$ using spectrophotometer.

Data set [2] deals with T1, Human serum albumin (HSA). As to the kind of experiment: EMSA; 25 C 1 h. On the procedure:
(§1) After that the reaction was incubated at 4° C. for 1 minutes before use. Step 2: 1 µL HSA was mixed with 9 µL of aptamer against HSA and 1 µL of 0.4 µg/µL GHSA was mixed with 9 µL of aptamer against GHSA. Step 3: The reaction from step 2 was incubated at 25° C. for 1 hour and analyzed on 8% polyacrylamide gel at 100 V for 30 minutes. Step 4: Aptamers on the polyacrylamide gel from step 3 were transferred to nylon membrane (Amersham Hybond-N+; GE Healthcare). Classical DNA/RNA transferring method was used. The transferring buffer was SSC (150 mM […] and 15 mM Sodium citrate, pH 7.0) and incubation time was 12 h. Step 5: Aptamer analysis using Phototope®-Star Detection Kit (New England Biolabs) Nylon membrane was removed from the transferring set up and put in the clear plastic container containing solution A (5% Sodium Dodecyl Sulfate (SDS), 125 mM NaCl, 25 mM Sodium Phosphate, pH 7.5). The system was incubated at room temperature for 5 minutes with gentle shaking. The solution was discarded and 10 µL of streptavidin in 20 mL of solution A was added in the reaction container and incubated at room temperature for 5 minutes with gentle shaking. The solution was discarded. Then the membrane was washed 3 times by using solution B (1:10 of solution A in steriled water) with gentle shaking for 5 min. […]

The target of data set [3] is Glycated human serum albumin (GHSA) (Homo sapiens, UniProt P02768 P02768:25-609). As to the kind of experiment: EMSA; unit as printed (umole); 25 C 1 h; also EMSA positive in Table 6 and direct ELISA positive. On the procedure: Step 5: Aptamer analysis using Phototope®-Star Detection Kit (New England Biolabs) Nylon membrane was removed from the transferring set up and put in the clear plastic container containing solution A (5% Sodium Dodecyl Sulfate (SDS), 125 mM NaCl, 25 mM Sodium Phosphate, pH 7.5). The system was incubated at room temperature for 5 minutes with gentle shaking. The solution was discarded and 10 µL of streptavidin in 20 mL of solution A was added in the reaction container and incubated at room temperature for 5 minutes with gentle shaking. The solution was discarded. Then the membrane was washed 3 times by using solution B (1:10 of solution A in steriled water) with gentle shaking for 5 min. Then the washing buffer was discarded before the next round washing. […] in 20 mL of solution A was added in the container. Then the system was incubated at room temperature for 5 minutes with gentle shaking. Then the solution is discarded. The membrane was washed 3 times by solution C (10 mM Tris HCl, 10 mM NaCl, 1 mM […], pH 9.50) with gentle shaking and then solution is discarded. […]
Chain of Glycated human serum albumin (GHSA) (P02768 25-609, one chain of several): as above
The quantitative binding of G8 aptamer from this invention and clone 9 aptamer from the previous study were analyzed by electromobility shifted assay (EMSA) and results were compared. […]
A general note: In EMSA bound probe runs differently from free probe, usually more slowly.

Data set [4] has as its target T1, Human serum albumin (HSA). The experiment in a line: EMSA; 25 C 1 h; indirect ELISA also + at 0.2-200 nM (Table 9). On the procedure: as §1

B1: clone 9 (ssDNA)
DNA: TAACTCACTCCATACTCACTTGCTGATTCGCCAACAACACACCCTTAAACAGTCCC
B1: in data set [1], the binding result is given as “binds”.

B2: H8 (ssDNA)
DNA: ATACCAGCTTATTCAATTCCCCCGGCTTTGGTTTAGAGGTAGTTGCTCATTACTTGTACGCTCCGGATGAGATAGTAAGTGCAATCT
Turning to B2, the binding result in data set [2] is recorded as “binds”.

B3: G8 (ssDNA)
DNA: GGTGCGGTTCGTGCGGTTGTAGTACTCGTGGCCGATAGAGGTAGTTTCG
With B3, in data set [3], the binding result is listed as “binds”.

B4: H14 (ssDNA)
DNA: ATACCAGCTTATTCAATTCGCGCACATATACAGGGCTTTACCAGCGGGGAAGGTTAGCGACGCGAGGGGGAGATAGTAAGTGCAATCT
Take B4: in data set [4], the binding result was “binds”.
